# According to US5254534A, “Adjuvant for cancer immunotherapy” (Green Cross Corporation, priority 1988, dated 1993):
# Like-named read-outs stand apart in the source and are kept apart here.
# B1: Example 4: human urine-derived CSF isolated and purified in the same manner as in Example 3 with TSKG-3,000SW and phenyl-5pw (protein, UniProt P09603 33-554, looked up)
# Macrophage colony-stimulating …: EEVSEYCSHMIGSGHLQSLQRLIDSQMETSCQITFEFVDQEQLKDPVCYLKKAFLLVQDIMEDTMRFRDNTPNAIAIVQLQELSLRLKSCFTKDYEEHDKACVRTFYETPLQLLEKVKNVFNETKNLLDKDWNIFSKNCNNSFAECSSQDVVTKPDCNCLYPKAIPSSDPASVSPHQPLAPSMAPVAGLTWEDSEGTEGSSLLPGEQPLHTVDPGSAKQRPPRSTCQSFEPPETPVVKDSTIGGSPQPRPSVGAFNPGMEDILDSAMGTNWVPEEASGEASEIPVPQGTELSPSRPGGGSMQTEPARPSNFLSASSPLPASAKGQQPADVTGTALPRVGPVRPTGQDWNHTPQKTDHPSALLRDPPEPGSPRISSLRPQGLSNPSTLSAQPQLSRSHSSGSVLPLGELEGRRSTRDRRSPAEPEGGPASEGAARPLPRFNSVPLTDTGHERQSEGSFSPQLQESVFHLLVPSVILVLLAVGGLLFYRWRRRSHQEPQRADSPLEQPEGSPLTQDDRQVELPV
# B2: Example 3: purified CSF from human urine, homodimer of 70,000-90,000 daltons (protein, UniProt P09603 33-554, looked up)
# Macrophage colony-stimulating …: B1 Macrophage colony-stimulating …
# B3: CSF (iv): CSF disclosed in JP-A-63-250400; glycoprotein, homodimer composed of two identical subunits (protein, UniProt P09603 33-554, looked up)
# Macrophage colony-stimulating …: B1 Macrophage colony-stimulating …
# B4: 2: heat-treated glycoprotein (CSF) from fresh urine collected from healthy humans (protein, UniProt P09603 33-554, looked up)
# Macrophage colony-stimulating …: B1 Macrophage colony-stimulating …
# modifications: heat-treated
# notes: heat-treated glycoprotein (CSF) from fresh urine collected from healthy humans
# B5: CSF (i): CSF disclosed in U.S. Pat. No. 4,275,056; glycoprotein, molecular weight 75,000-90,000 by gel filtration (protein, UniProt P09603 33-554, looked up)
# Macrophage colony-stimulating …: B1 Macrophage colony-stimulating …
# B6: CSF (ii): CSF disclosed in JP-A-63-54398; glycoprotein, molecular weight about 70,000 by gel filtration (protein, UniProt P09603 33-554, looked up)
# Macrophage colony-stimulating …: B1 Macrophage colony-stimulating …
# Assays:
# TNF activity = assay: Induction of TNF activity by mixed culture of monocytes and PICIBANIL (OK-432) plus CSF; cytocidal activity against L929 cells (crystal violet); type: cell-based; conditions: conclusions from Table 2
# Procedure: (3) Incubation was performed at 37° C. for 72 hours in a 5% CO2 atmosphere.
# (4) The supernatant was assayed for TNF activity at timed intervals. The TNF activity was determined by measuring the cytocidal activity against L929 cells in terms of the absorbance of crystal violet.
# mouse marrow cells [1] = assay: Colony stimulating activity: colony formation of mouse marrow cells on soft agar; type: cell-based; conditions: for specific activity: purified glycoprotein/CSF of the examples
# Procedure: In biological activity measurement, the colony formation of mouse marrow cells in vitro was used as an activity measurement parameter. […] Thereafter, cell aggregates consisting of 50 or more cells were counted as colonies under an invert microscope.
# One colony formed is taken as one unit.
# Thus, the CSF sample was admixed with 1 ml of McCoy's 5A medium containing 0.3% agar, 20% fetal calf serum (FCS) and 1×10^5 mouse marrow cells. […] Thereafter, cell aggregates consisting of 50 or more cells were judged as colonies and counted. The colony stimulating activity was expressed in units. One unit was defined as the quantity of CSF required for the formation of one colony. The specific activity was expressed in terms of the number of colonies (units) formed per milligram of the CSF protein. […] The colonies formed were stained with hematoxylin-eosin for morphological classification.
# Isoelectric point = type: physicochemical; conditions: polyacrylamide gel isoelectric focusing and sucrose density gradient isoelectric focusing
# From the text: The isoelectric point (pI) as determined by the polyacrylamide gel isoelectric focusing and sucrose density gradient isoelectric focusing techniques is 3.1-3.7.
# [2] = Thermal stability of the CSF (60°C, then colony stimulating activity); type: physicochemical; conditions: 1 μg/ml, dilute buffer pH 7.0, 60°±0.5° C., 60 minutes
# Procedure: The CSF was dissolved in a dilute buffer (pH 7.0) to a concentration of 1 μg/ml, and the solution was heated at 60°±0.5° C. for 60 minutes and then assayed for colony stimulating activity (to be mentioned later herein).
# mouse marrow cells [3] = conditions: CSF (iv), typical production method; cited from earlier work
# [4] = 60±0.5° C., 60 minutes; CSF (iv); cited from earlier work
# [5] = polyacrylamide gel isoelectric focusing and sucrose density gradient isoelectric focusing; CSF (iv); cited from earlier work
# [6] = tested on: mammalian monocyte-macrophage series cells; conditions: cited from earlier work
# [7] = cited from earlier work
# [8] = 1% (by weight) aqueous solution; cited from earlier work
# [9] = 1% (by weight) aqueous solution, 60° C. ±0.5° C., 30 minutes; cited from earlier work
# human marrow cells = conditions: cited from earlier work
# marrow cells = conditions: cited from earlier work
molecule,measurement,setting,value
B1,TNF activity (in words),TNF activity,does not cause TNF activity expression
same,specific activity,mouse marrow cells [1],1.5×10^8 units/mg protein
B2,isoelectric point (pI),Isoelectric point,3.1-3.7
same,Thermal stability (colony stimulating activity decrease),[2],Almost no activity decrease was observed
same,proportion of colonies that were monocyte-macrophage colonies,"mouse marrow cells [1]; hematoxylin-eosin staining, 7 days at 37° C.",at least 95%
same,specific activity,mouse marrow cells [1],1.4×10^8 units/mg protein
B3,specific activity,mouse marrow cells [3],"100,000-20,000,000 units/mg protein"
same,Thermal stability (biological activity),[4],biological activity is not lost
same,isoelectric point (pI),[5],3.1-3.7
same,colony stimulating activity,[6],has colony stimulating activity
B4,specific activity,mouse marrow cells [1],1×10^7 units/mg protein
B5,Solubility in chloroform,[7]; chloroform,slightly soluble
same,Solubility in ethyl alcohol and acetone,[7]; ethyl alcohol and acetone,insoluble
same,Solubility in water,[7]; water,soluble
same,pH,[8],5.0-6.0
same,Temperature stability,[9],loses its ability to promote the differentiation and proliferation of human granulocytes
same,differentiation and proliferation of granulocytes,human marrow cells,promotes the differentiation and proliferation of granulocytes
B6,differentiation and proliferation of granulocytic series stem cells,marrow cells,promotes the differentiation and proliferation of granulocytic series stem cells
